Five molecules from patent publication US20220324953A1 (JIANGSU HENGRUI MEDICINE, published 2022) can be followed below.

The chains are these.
T1: mouse CTGF (antigen of the Biacore assay) (mouse, UniProt P29268 26-348)
T1 construct: also called mouse CTGF protein
T1 sequence (looked up): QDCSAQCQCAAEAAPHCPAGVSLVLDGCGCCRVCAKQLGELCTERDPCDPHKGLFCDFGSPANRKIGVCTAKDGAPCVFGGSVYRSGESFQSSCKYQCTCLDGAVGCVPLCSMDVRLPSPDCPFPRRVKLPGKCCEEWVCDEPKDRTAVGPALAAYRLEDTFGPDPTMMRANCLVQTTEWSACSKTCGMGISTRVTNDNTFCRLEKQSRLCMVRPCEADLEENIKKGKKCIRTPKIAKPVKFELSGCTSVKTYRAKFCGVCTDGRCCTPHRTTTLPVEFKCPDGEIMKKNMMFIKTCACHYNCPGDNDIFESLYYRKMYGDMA

T2: human CTGF (antigen of the Biacore assays) (human, UniProt P29279 27-349)
T2 construct: also called antigen human CTGF; human CTGF protein
T2 sequence (looked up): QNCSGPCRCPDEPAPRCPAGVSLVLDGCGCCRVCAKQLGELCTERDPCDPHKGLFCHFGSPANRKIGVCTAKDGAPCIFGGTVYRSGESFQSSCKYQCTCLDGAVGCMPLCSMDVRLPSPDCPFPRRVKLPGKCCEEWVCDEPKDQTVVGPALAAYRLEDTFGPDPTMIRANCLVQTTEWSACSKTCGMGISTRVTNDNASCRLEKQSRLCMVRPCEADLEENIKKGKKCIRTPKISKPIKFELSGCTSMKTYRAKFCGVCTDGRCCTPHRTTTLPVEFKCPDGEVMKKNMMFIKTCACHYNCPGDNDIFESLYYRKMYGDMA

B1: Hu147-12wk (antibody, human IgG1, kappa, V domains shown)
VH: EVQLVESGGGLVQPGGSLRLSCAASGFTFSTYAMNWVRQAPGKGLEWVGRIRTKSNNYATYYADSVKDRFTISRDDSKNSLYLQMNSLKTEDTAVYYCVETGFAYWDQGTLVTVSS
VL: EIVLTQSPATLSLSPGERATLSCSASSSVSYMHWFQQKPGQSPKLLIYSTSNLASGIPARFSGSGSGTDYTLTISSLEPEDFAVYYCQQRSSYPLTFGQGTKLEIKR
B2: Hu164-68wl (antibody, human IgG1, lambda, V domains shown)
VH: EVTLKESGPVLVKPTETLTLTCTVSGFSLSTFGVHWIRQPPGKGLEWLGVIWRRGGTDYNAAFMSRLTISKDTSKSQVVFTMTNMDPVDTATYYCARDGGFDYWGQGTTVTVSS
VL: ETVVTQEPSFSVSPGGTVTLTCRSSIGAVTTSNYANWVQQTPGQAFRGLIGGTSNRAPGVPDRFSGSILGNKAALTITGAQADDESDYYCALWYSTHYVFGGGTKLTVLG
B3: Hu164-69wl (antibody, human IgG1, lambda, V domains shown)
VH: B2 VH
VL: ESVVTQPPSVSGAPGQRVTISCRSSIGAVTTSNYANWVQQLPGTAFKGLIGGTSNRAPGVPDRFSGSKSGTSASLAITGLQAEDEADYYCALWYSTHYVFGGGTKLTVLG
B4: Hu164-67wl (antibody, human IgG1, lambda)
heavy: not shown
light: ETVVTQEPSLTVSPGGTVTLTCRSSIGAVTTSNYANWVQQKPGQAFRGLIGGTSNRAPWTPARFSGSLLGGKAALTLSGVQPEDEAEYYCALWYSTHYVFGGGTKLTVLGQPKANPTVTLFPPSSEELQANKATLVCLISDFYPGAVTVAWKADGSPVKAGVETTKPSKQSNNKYAASSYLSLTPEQWKSHRSYSCQVTHEGSTVEKTVAPTEC
B5: Hu164-57wl (antibody, human IgG1, lambda, V domains shown)
VH: B2 VH with G44A, G49A, F80L
VL: ETVVTQEPSLTVSPGGTVTLTCRSSIGAVTTSNYANWVQQKPGQAFRGLIGGTSNRAPWTPARFSGSLLGGKAALTLSGVQPEDEAEYYCALWYSTHYVFGGGTKLTVLG

What is called Kd is a measure of binding affinity in units of concentration. High values mean lower affinity, low ones higher affinity. The term koff denotes a measure of how fast the partners let go of each other. Lower therefore signals a long-lived complex. The term kon denotes a measure of how fast the partners come together. In general, EC50 refers to the concentration that produces a half-maximal response. A low value points to an effect from little substance.

Substitutions are numbered along the chain they refer to.

The first assay deals with T1, mouse CTGF (antigen of the Biacore …). The assay can be described thus: Biacore, antibody captured on Protein A, mouse CTGF in flow, 1:1 fit. The essentials:
(§1)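 Antibodies captured on a Protein A chip, with human or mouse CTGF flowed over in HBS-EP running buffer; association and dissociation recorded in real time. Surface regenerated with glycine-HCl pH 1.5 between cycles; kinetics fitted to a 1:1 model.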
The molecule B1 came in with a Kd of 3.09 nM, a koff of 0.116 s⁻¹ and a kon of 3.75e+07 M⁻¹ s⁻¹.

B2 showed a Kd of 0.133 nM, a koff of 0.0076 s⁻¹ and a kon of 5.7e+07 M⁻¹ s⁻¹.

As for B3, the affinity, expressed as Kd, was 0.126 nM; the koff was 0.00774 s⁻¹; the kon worked out at 6.17e+07 M⁻¹ s⁻¹.

In turn, B4 came in with a Kd of 0.0184 nM, a koff of 0.00117 s⁻¹ and a kon of 6.36e+07 M⁻¹ s⁻¹.

Molecule B5 came in with a Kd of 0.0322 nM, a koff of 0.00237 s⁻¹ and a kon of 7.35e+07 M⁻¹ s⁻¹.

The next assay has as its target T2, human CTGF (antigen of the Biacore …). The assay can be described thus: Biacore, antibody captured on Protein A, CTGF in flow, 1:1 fit. The essentials: as §1
(In general: Surface plasmon resonance follows binding to a sensor surface in real time, without labels.)
Regarding B1, the Kd was 0.969 nM, the koff was 0.033 s⁻¹ and the kon is 3.41e+07 M⁻¹ s⁻¹.

The molecule B2 had a Kd of 0.302 nM, a koff of 0.0116 s⁻¹ and a kon of 3.84e+07 M⁻¹ s⁻¹.

Regarding B3, the Kd is 0.322 nM, the koff was 0.028 s⁻¹ and the on-rate (kon) worked out at 8.71e+07 M⁻¹ s⁻¹.

Consider B4, for which binding was put at a Kd of 0.0379 nM, the koff amounted to 0.00196 s⁻¹ and the kon amounted to 5.17e+07 M⁻¹ s⁻¹.

Regarding B5, binding was characterised by a dissociation constant (Kd) of 0.0691 nM, the dissociation rate constant (koff) stood at 0.00294 s⁻¹ and the kon turned out to be 4.26e+07 M⁻¹ s⁻¹.

The target of another assay is T3, Cynomolgus CTGF-Fc (fusion protein of cynomolgus CTGF coding region with Fc) (cynomolgus).
T3 construct: also called cyno-CTGF-mFc protein; cyno-CTGF protein with Fc tag
T3 sequence (chain, as listed by the source limits assumed): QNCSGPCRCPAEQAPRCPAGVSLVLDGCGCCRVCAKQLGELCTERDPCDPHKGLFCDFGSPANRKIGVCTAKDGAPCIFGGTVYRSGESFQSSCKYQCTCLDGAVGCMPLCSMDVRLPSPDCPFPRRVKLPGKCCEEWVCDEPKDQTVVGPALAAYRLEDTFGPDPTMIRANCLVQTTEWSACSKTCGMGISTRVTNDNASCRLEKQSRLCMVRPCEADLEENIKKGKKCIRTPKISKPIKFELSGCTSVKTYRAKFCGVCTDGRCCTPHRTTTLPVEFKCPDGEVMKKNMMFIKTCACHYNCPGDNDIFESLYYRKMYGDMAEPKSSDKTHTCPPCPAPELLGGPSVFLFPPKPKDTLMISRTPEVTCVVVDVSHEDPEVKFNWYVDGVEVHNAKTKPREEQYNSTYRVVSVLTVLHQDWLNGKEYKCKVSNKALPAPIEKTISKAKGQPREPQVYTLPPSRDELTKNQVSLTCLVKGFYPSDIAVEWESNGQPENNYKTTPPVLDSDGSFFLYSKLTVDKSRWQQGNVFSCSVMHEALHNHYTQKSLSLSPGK
The assay can be described thus: ELISA, cyno-CTGF-Fc captured by anti-mFc. How it is done:
The binding activity of anti-monkey CTGF antibody to monkey CTGF protein was tested by ELISA assay. A 96-well microtiter plate was directly coated with anti-mFc protein, and then the cyno-CTGF protein with Fc tag was bound to the plate, and then the antibody was added. The signal strength upon the addition of the antibody was used to determine the binding activity of the antibody to cyno-CTGF. The specific experimental procedures were as follows:
The anti-mFc Protein (Sigma, Cat No. M4280) was diluted with PBS, pH 7.4 (Shanghai Yuanpei, Cat No. B320) buffer to a concentration of 2 μg/ml, which was added into the 96-well microtiter plate (Corning, Cat No. CLS3590-100EA) at 50 μl/well, and incubated in an incubator at 37° C. for 2 hours. The liquid was removed, 250 μl/well blocking solution (5% skim milk (BD skim milk, Cat No.232100) diluted in PBS) was added, and incubated in an incubator at 37° C. for 3 hours or at 4° C. overnight (16-18 hours) for blocking. After the blocking was finished, the blocking solution was removed, the plate was washed for 3 times with PBST buffer (PBS containing 0.1% Tween-20, pH 7.4), 50 μl of 1 μg/ml cyno-CTGF-mFc protein was added into each well, incubated in an incubator at 37° C. for 1 hour, and then the plate was washed for 3 times with PBST buffer (PBS containing 0.1% Tween-20, pH 7.4). 50 μl/well of various concentrations of each of the test antibodies (antibodies purified from hybridoma or humanized antibodies) diluted with sample dilution solution were added, and incubated in an incubator at 37° C. for 1 hours. After the incubation was finished, the plate was washed for 3 times with PBST, 50 μl/well of HRP-labeled goat anti-mouse secondary antibody (Jackson Immuno Research, Cat No. 115-035-003) or goat anti-human secondary antibody (Jackson Immuno Research, Cat No. 109-035-003) diluted with sample dilution solution was added, and incubated at 37° C. for 1 hour. The plate was washed for 5 times with PBST, 50 μl/well of TMB chromogenic substrate (KPL, Cat No. 52-00-03) was added, incubated at room temperature for 5-10 min, and 50 μl/well of 1 M H₂SO₄ was added to stop the reaction. The absorbance value was read by a microplate reader (Molecular Devices, VERSA max) at a wavelength of 450 nm, and the data was analyzed with GraphPad Prism 5. The binding of CTGF antibody to cyno CTGF protein was calculated as EC50 value.
For orientation: In an ELISA, binding on a coated surface is turned into a signal by an enzyme label.
In turn, B1 registered an EC50 of 0.062 nM.

In turn, B2 showed an EC50 of 0.036 nM.

Molecule B3 yielded an EC50 of 0.032 nM.

As to B4, the response was half-maximal at 0.028 nM (EC50).

Consider B5, for which the EC50 worked out at 0.029 nM.
